Experimental data reported in patent publication CN111018979A (DONGGUAN PENGZHI BIOTECHNOLOGY CO LTD, dated 2020).

Molecular target: T1, cTnI质控品重组蛋白 (recombinant cardiac troponin I quality-control antigen, made in-house) (human, UniProt P19429 1-210, limits assumed)
T1 construct: The assay paragraph says only 'cTnI质控品重组蛋白(公司自产重组抗原)', so the limits of the construct are unknown; also called 心肌肌钙蛋白I; cTnI质控品重组抗原
Assay: BLI, antibody held on AMC sensor, cTnI recombinant protein in solution in a dilution series

T1 sequence (P19429 whole entry): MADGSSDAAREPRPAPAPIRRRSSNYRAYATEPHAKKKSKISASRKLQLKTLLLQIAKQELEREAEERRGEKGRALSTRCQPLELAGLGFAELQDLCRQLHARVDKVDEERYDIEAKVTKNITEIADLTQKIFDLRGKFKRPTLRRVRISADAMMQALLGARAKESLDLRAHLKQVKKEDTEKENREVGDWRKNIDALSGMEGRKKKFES

B1: Anti-cTnI 2E7 recombinant antibody (sample 1 of Example 1) (antibody, V domains shown)
VH: QVQLQQPGAELVRPGASVKLSCKASDYTFSSYWMQWVKQRPGQGLEWIGMLDPSDSETHYNQLFKDKATLTVDKSSNTAYMQLSSLTSEDSAVYFCAFLTSLGDYWGQGTTLTVSS
VL: DVLMTQTPLSLPVSLGDQASISCRSSQSIIHSQGNSYLEWYLQKPGQSPKLLLYKVSQRLSGVPDRFSGSGSGTDFTLKISRVEAEDLGVYYCFNGSHLPITFGAGTKLELK
Binder B1 has a Kd of 64.8 nM, a koff of 0.0027 s⁻¹ and a kon of 41700 M⁻¹ s⁻¹.
